Drawing on the RNAGym collection of RNA variant scans (doi:10.7554/elife.80360), this text covers self-cleavage for 54 variants.

First the molecules themselves.
B1: Twister Ribozyme (parent)
chain: AACACUGCCAAUGCCGGUCCCAAGCCCGGAUAAAAGUGGAGGGGGCGG

The variants in the data set derive from B1. The experiment in a line: self-cleavage, relative activity (ratio to wild type); higher = more cleavage; co-transcriptional.
For AACACUGCCAAUGCCGGUCCCAAGCCCGGAUAAAAGUGAAGGGGGCGU [G39A G48U], the self-cleavage worked out at 0.517. As to AACACUGCCAAUGCCGGUCCCAAGCCCGGAUAAAAGUGAAGGGGGCGA [G39A G48A], the self-cleavage is 0.388.

For AACACUGCCAAUGCCGGUCCCAAGCCCGGAUAAAAGUGGGGGAGGCGG [A40G G43A], the self-cleavage was 0.147. Under AACACUGCCAAUGCCGGUCCCAAGCCCGGAUAAAAGUGGACGGGGCGU [G41C G48U] stands 0.288. Under AACACUGCCAAUGCCGGUCCCAAGCCCGGAUAAAAGUGGACGGGGCGA [G41C G48A] stands 0.234; under AACACUGCCAAUGCCGGUCCCAAGCCCGGAUAAAAGUGGACGGGGCGC [G41C G48C], 0.332; under AACACUGCCAAUGCCGGUCCCAAGCCCGGAUAAAAGUGUAGGGGCCGG [G39U G45C], 0.183. With AACACUGCCAAUGCCGGUCCCAAGCCCGGAUAAAAGUGGAAGGGGCAG [G41A G47A], the self-cleavage was found to be 0.278. Under AACACUGCCAAUGCCGGUCCCAAGCCCGGAUAAAAGUGGAAGGGGCCG [G41A G47C] stands 0.2; under AACACUGCCAAUGCCGGUCCCAAGCCCGGAUAAAAGUGGUGGGAGCGG [A40U G44A], 0.155. AACACUGCCAAUGCCGGUCCCAAGCCCGGAUAAAAGUGGUGGGCGCGG [A40U G44C]: the self-cleavage worked out at 0.178.

With AACACUGCCAAUGCCGGUCCCAAGCCCGGAUAAAAGUGGAGAGGGGGG [G42A C46G], the self-cleavage amounted to 0.232. For the variant AACACUGCCAAUGCCGGUCCCAAGCCCGGAUAAAAGUGCAAGGGGCGG [G39C G41A], the self-cleavage is 0.0895.

AACACUGCCAAUGCCGGUCCCAAGCCCGGAUAAAAGUGCACGGGGCGG [G39C G41C]: the self-cleavage came to 0.112.

Consider AACACUGCCAAUGCCGGUCCCAAGCCCGGAUAAAAGUGGAGAGGACGG [G42A G45A], for which the self-cleavage turned out to be 0.422. Consider AACACUGCCAAUGCCGGUCCCAAGCCCGGAUAAAAGUGGAGCGUGCGG [G42C G44U], for which the self-cleavage is 0.162. Under AACACUGCCAAUGCCGGUCCCAAGCCCGGAUAAAAGUGGGGGGGGCGA [A40G G48A] stands 0.193; under AACACUGCCAAUGCCGGUCCCAAGCCCGGAUAAAAGUGGGGGGGGCGC [A40G G48C], 0.14. Turning to AACACUGCCAAUGCCGGUCCCAAGCCCGGAUAAAAGUGGAUGGGCCGG [G41U G45C], the self-cleavage is 0.177.

As for AACACUGCCAAUGCCGGUCCCAAGCCCGGAUAAAAGUGGAUGGGACGG [G41U G45A], the self-cleavage was determined as 0.596. As for AACACUGCCAAUGCCGGUCCCAAGCCCGGAUAAAAGUGUAGGUGGCGG [G39U G43U], the self-cleavage is 0.143.

With AACACUGCCAAUGCCGGUCCCAAGCCCGGAUAAAAGUGGGGGGGUCGG [A40G G45U], the self-cleavage worked out at 0.147. Under AACACUGCCAAUGCCGGUCCCAAGCCCGGAUAAAAGUGGGGGGGCCGG [A40G G45C] stands 0.148; under AACACUGCCAAUGCCGGUCCCAAGCCCGGAUAAAAGUGGACGUGGCGG [G41C G43U], 0.153; under AACACUGCCAAUGCCGGUCCCAAGCCCGGAUAAAAGUGGACGCGGCGG [G41C G43C], 0.148. Under AACACUGCCAAUGCCGGUCCCAAGCCCGGAUAAAAGUGGACGAGGCGG [G41C G43A] stands 0.141. Under AACACUGCCAAUGCCGGUCCCAAGCCCGGAUAAAAGUGCAGGGAGCGG [G39C G44A] stands 0.137. As to AACACUGCCAAUGCCGGUCCCAAGCCCGGAUAAAAGUGCAGGGCGCGG [G39C G44C], the self-cleavage stood at 0.167.

As to AACACUGCCAAUGCCGGUCCCAAGCCCGGAUAAAAGUGGUGGCGGCGG [A40U G43C], the self-cleavage is 0.114. Consider AACACUGCCAAUGCCGGUCCCAAGCCCGGAUAAAAGUGGUGGAGGCGG [A40U G43A], for which the self-cleavage was 0.132. AACACUGCCAAUGCCGGUCCCAAGCCCGGAUAAAAGUGGAGCAGGCGG [G42C G43A]: the self-cleavage is 0.139. In the case of AACACUGCCAAUGCCGGUCCCAAGCCCGGAUAAAAGUGGAGAGGGCGC [G42A G48C], the self-cleavage was 0.624. For the variant AACACUGCCAAUGCCGGUCCCAAGCCCGGAUAAAAGUGGGCGGGGCGG [A40G G41C], the self-cleavage is 0.133. Under AACACUGCCAAUGCCGGUCCCAAGCCCGGAUAAAAGUGGGAGGGGCGG [A40G G41A] stands 0.141; under AACACUGCCAAUGCCGGUCCCAAGCCCGGAUAAAAGUGGAUGGGGCCG [G41U G47C], 0.209; under AACACUGCCAAUGCCGGUCCCAAGCCCGGAUAAAAGUGGAUGGGGCUG [G41U G47U], 0.3. In the case of AACACUGCCAAUGCCGGUCCCAAGCCCGGAUAAAAGUGGACGGCGCGG [G41C G44C], the self-cleavage came to 0.187.

For AACACUGCCAAUGCCGGUCCCAAGCCCGGAUAAAAGUGGACGGAGCGG [G41C G44A], the self-cleavage was determined as 0.211. Under AACACUGCCAAUGCCGGUCCCAAGCCCGGAUAAAAGUGGAGAGGGCAG [G42A G47A] stands 0.282. Under AACACUGCCAAUGCCGGUCCCAAGCCCGGAUAAAAGUGGCGCGGGCGG [A40C G42C] stands 0.164; under AACACUGCCAAUGCCGGUCCCAAGCCCGGAUAAAAGUGCAGGGGGCAG [G39C G47A], 0.152; under AACACUGCCAAUGCCGGUCCCAAGCCCGGAUAAAAGUGGACGGGACGG [G41C G45A], 0.334.

In the case of AACACUGCCAAUGCCGGUCCCAAGCCCGGAUAAAAGUGGACGGGCCGG [G41C G45C], the self-cleavage amounted to 0.253. Under AACACUGCCAAUGCCGGUCCCAAGCCCGGAUAAAAGUGGCGGGGGCAG [A40C G47A] stands 0.19; under AACACUGCCAAUGCCGGUCCCAAGCCCGGAUAAAAGUGGCGGGGGCCG [A40C G47C], 0.193; under AACACUGCCAAUGCCGGUCCCAAGCCCGGAUAAAAGUGGAUGGGGCGA [G41U G48A], 0.401.

Consider AACACUGCCAAUGCCGGUCCCAAGCCCGGAUAAAAGUGGCGGGGGGGG [A40C C46G], for which the self-cleavage turned out to be 0.218. As for AACACUGCCAAUGCCGGUCCCAAGCCCGGAUAAAAGUGGCGGGGGUGG [A40C C46U], the self-cleavage was determined as 0.236.

Regarding AACACUGCCAAUGCCGGUCCCAAGCCCGGAUAAAAGUGAAGGGGGCAG [G39A G47A], the self-cleavage worked out at 0.363.

In the case of AACACUGCCAAUGCCGGUCCCAAGCCCGGAUAAAAGUGGACGGGGUGG [G41C C46U], the self-cleavage worked out at 0.282. Turning to AACACUGCCAAUGCCGGUCCCAAGCCCGGAUAAAAGUGCGGGGGGCGG [G39C A40G], the self-cleavage amounted to 0.164. On to AACACUGCCAAUGCCGGUCCCAAGCCCGGAUAAAAGUGCCGGGGGCGG [G39C A40C], for which the self-cleavage was found to be 0.114. Take AACACUGCCAAUGCCGGUCCCAAGCCCGGAUAAAAGUGCUGGGGGCGG [G39C A40U]: the self-cleavage was 0.165. Regarding AACACUGCCAAUGCCGGUCCCAAGCCCGGAUAAAAGUGUAGGGUGCGG [G39U G44U], the self-cleavage came to 0.164.
